Measurements published in publication PMC7352350, “Molecular Interactions Stabilizing the Promatrix Metalloprotease-9·Serglycin Heteromer” (International Journal of Molecular Sciences, 2020).

B1: SG peptide 23 with D46 changed to A (peptide, UniProt P10124 72-91, looked up)
peptide: TALFPKTRIQDLNRIFPLSE
notes: serglycin core protein, mutated 20-mer of spot 23; numbers count on: the mature protein (1-131); source: synthetic peptide on a cellulose membrane
B2: SG peptide 21 with D46 changed to A (peptide, UniProt P10124 68-87, looked up)
peptide: PRLRTALFPKTRIQDLNRIF
notes: serglycin core protein, mutated 20-mer of spot 21; numbers count on: the mature protein (1-131); source: synthetic peptide on a cellulose membrane
B3: recombinant proMMP-9 lacking the HPX domain (domain or fragment, human, UniProt P14780 20-515, looked up)
chain: APRQRQSTLVLFPGDLRTNLTDRQLAEEYLYRYGYTRVAEMRGESKSLGPALLLLQKQLSLPETGELDSATLKAMRTPRCGVPDLGRFQTFEGDLKWHHHNITYWIQNYSEDLPRAVIDDAFARAFALWSAVTPLTFTRVYSRDADIVIQFGVAEHGDGYPFDGKDGLLAHAFPPGPGIQGDAHFDDDELWSLGKGVVVPTRFGNADGAACHFPFIFEGRSYSACTTDGRSDGLPWCSTTANYDTDDRFGFCPSERLYTQDGNADGKPCQFPFIFQGQSYSACTTDGRSDGYRWCATTANYDRDKLFGFCPTRADSTVMGGNSAGELCVFPFTFLGKEYSTCTSEGRGDGRLWCATTSNFDSDKKWGFCPDQGYSLFLVAAHEFGHALGLDHSSVPEALMYPMYRFTEGPPLHKDDVNGIRHLYGPRPEPEPRPPTTTTPQPTAPPTVCPTGPPTVHPSERPTAGPTGPPSAGPTGPPTAGPSTATTVPLSPVDDA
notes: MMP-9 proenzyme, human; stop codon behind the codon for A515; the mature proenzyme starts at 20; also called rpMMP-9ΔHPX; proMMP-9ΔHPX; source: Sf9, baculovirus, purified (gelatin-Sepharose)
B4: recombinant human His-tagged serglycin (natural protein, UniProt P10124 28-158, looked up)
chain: YPTRRARYQWVRCNPDSNSANCLEEKGPMFELLPGESNKIPRLRTDLFPKTRIQDLNRIFPLSEDYSGSGFGSGSGSGSGSGSGFLTEMEQDYQLVDESDAFHDNLRSLDRNLPSDSQDLGQHGLEEDFML
notes: serglycin core protein, human, the tag stands instead of the signal peptide; no GAG chains; numbers count on: the mature protein (1-131); also called Ht-SG; SG core protein; source: bought: ProSpec (produced in Escherichia coli)
B5: proMMP-9 purified from THP-1 cells (enzyme, human (endogenous in THP-1), UniProt P14780 20-707, looked up)
chain: APRQRQSTLVLFPGDLRTNLTDRQLAEEYLYRYGYTRVAEMRGESKSLGPALLLLQKQLSLPETGELDSATLKAMRTPRCGVPDLGRFQTFEGDLKWHHHNITYWIQNYSEDLPRAVIDDAFARAFALWSAVTPLTFTRVYSRDADIVIQFGVAEHGDGYPFDGKDGLLAHAFPPGPGIQGDAHFDDDELWSLGKGVVVPTRFGNADGAACHFPFIFEGRSYSACTTDGRSDGLPWCSTTANYDTDDRFGFCPSERLYTQDGNADGKPCQFPFIFQGQSYSACTTDGRSDGYRWCATTANYDRDKLFGFCPTRADSTVMGGNSAGELCVFPFTFLGKEYSTCTSEGRGDGRLWCATTSNFDSDKKWGFCPDQGYSLFLVAAHEFGHALGLDHSSVPEALMYPMYRFTEGPPLHKDDVNGIRHLYGPRPEPEPRPPTTTTPQPTAPPTVCPTGPPTVHPSERPTAGPTGPPSAGPTGPPTAGPSTATTVPLSPVDDACNVNIFDAIAEIGNQLYLFKDGKYWRFSEGRGSRPQGPFLIADKWPALPRKLDSVFEERLSKKLFFFSGRQVWVYTGASVLGPRRLDKLGLGADVAQVTGALRSGRGKMLLFSGRRLWRFDVKAQMVDPRSASEVDRMFPGVPLDTHDVFQYREKAYFCQDRFYWRVSSRSELNQVDQVGYVTYDILQCPED
notes: matrix metalloprotease-9 proenzyme, human; pre domain cleaved off, the mature proenzyme is 20-707; the preparation holds a small amount of TIMP-1; monomer and reduction-sensitive homomultimer; also called pMMP-9; promatrix metalloprotease-9; source: purified from conditioned medium of PMA-stimulated THP-1 cells (Q-Sepharose pass-through, gelatin-Sepharose)
B6: recombinant full-length proMMP-9 (enzyme, human, UniProt P14780 20-707, looked up)
chain: B5 chain
notes: matrix metalloprotease-9 proenzyme, human, full-length; pre domain cleaved off, the mature proenzyme is 20-707; also called rpMMP-9; source: Sf9, baculovirus, purified (gelatin-Sepharose)

Legend:
[1] = biological target: B5; experiment: peptide or protein array; mutated SG 20-mer peptides on cellulose, incubated with pMMP-9; antibody against MMP-9; details: both partners purified
[2] = biological target: the molecule itself; experiment: SDS-PAGE, Western blotting and gelatin zymography under non-reducing and reducing conditions; purified preparations; SDS-stable, reduction-sensitive homomultimer beside the monomer
[3] = biological target: B5; experiment: far-Western, overlay or dot blot; slot blot: 200 ng Ht-SG on a polyvinyl difluoride membrane, blocked with milk powder, incubated with pMMP-9 for 2.5 h at room temperature; detected with antibody against proMMP-9; details: both partners purified

B1
binding result [1]: binds

B2
binding result [1]: binds

B3
binding result [2]: binds

B4
binding result [3]: binds

B5
binding result [2]: binds

B6
binding result [2]: binds
